In patent US10494415B2, “Insulin-like growth factor 2 (IGF2) binding agents” (Cancer Research Technology Limited, priority 2015, dated 2019):

Target: IGF2 (Homo sapiens, UniProt P01344)
Experiment: SPR (Biacore T200) of recombinant IGF2R domain 11 mutants on immobilised biotinylated IGF2
Type: binding
Parameters: purchased GroPep
Conditions: for off rate / koff (figure legend) / on rate / kon (figure legend): FIG. 2, 3
Description: Surface plasmon resonance (SPR) binding analysis of recombinant M6P/IGF2R domain 11 mutants interaction with IGF2. Kon indicates association (on) rate; koff, dissociation (off) rate; RU, response units. Binding to IGF2 assessed with BIAcore T200 using purified biotinylated IGF2 and IGF1 on a streptavidin biosensor chip. Recombinant proteins were expressed either in E. coli and/or P. pastoris. All the mutants in the FG and CD loops are on the domain 11^AB5 background for the AB loop unless otherwise stated. All experiments were carried out at 25° C. in HBS-EP buffer (pH 7.4), were repeated 2-5 times on two independent BIAcore chips. nd=not determined. Data for KD expressed as mean of each experiment, and means of kon and koff are shown.
Measurements were carried out at 25° C. in HBS-EP buffer (pH 7.4) (nd=not determined, np=no protein). Data for KD expressed as mean of each experiment, and means of kon and koff are shown.
Measurements were carried out at 25° C. in MES-EP buffer, 20 mM MES pH 6.5, 150 mM NaCl, 3 mM EDTA, and 0.005% (v/v) surfactant P20). Data for KD expressed as mean of each experiment, and means of kon and koff are shown.
Final kinetic analysis of mutants by SPR was conducted using a Biacore T200 biosensor at 25° C. in either HBS-EP (10 mM HEPES pH 7.4, 150 mM NaCl, 3 mM EDTA, and 0.005% (v/v) surfactant P20) or MES-EP (20 mM MES pH 6.5, 150 mM NaCl, 3 mM EDTA, and 0.005% (v/v) surfactant P20) at a flow-rate of 40 μL min^−1. […] For the analysis of the Fc-domain 11^AB5 interaction, approximately 50 RU of a biotinylated IGF2:biotinylated ubiquitin mixture (1:8 proportion) was immobilized on the CM5-streptavidin chip. This interaction was also analysed by immobilizing the Fc-domain 11^AB5 and Fc-domain 11^AB5-RHH (or Fc-domain 11^I1572A as control) by Human Antibody Capture (monoclonal mouse anti-human IgG antibody immobilised on a CM5 chip by amine coupling, GE Healthcare) with and without human IgG1 Fc fragment (Bethyl Laboratories, UK) in the control flow cell. Increasing concentrations of IGF2^1-67, proIGF2^1-104, proIGF2^1-156 and IGF1 ranging from 0.125 to 32 nM were injected. T200 BiaEvaluation software (GE Healthcare) was used to fit the resulting curves according to a 1:1 binding model. Steady state affinities were determined using the kinetic data, taking the response average at 5 seconds before injection end and for 5 seconds average. Thermodynamic data was performed across the temperature range of 10° C. to 30° C., van't Hoff and Erying plots generated and ΔH, −TΔS and ΔG values determined as previously described.

Sequence of IGF2 (P01344 25-91): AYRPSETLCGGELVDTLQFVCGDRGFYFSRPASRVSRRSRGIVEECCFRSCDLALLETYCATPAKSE

B1: K1631W: domain 11 HI loop mutant K1631W, probably AB5 background (protein)
chain: MKSNEHDDCQVTNPSTGHLFDLSSLSGRAGFTAAYAKGWGVYMSICGENENCPPGVGACFGQTRISVGKANKRLRYVDQVLQLVYKDGSPCPSKSGLSYKSVISFVCRPEAGPTNRPMLISLDWQTCTLFFSWHTPLACEQATECSV
B1 was tested. Which Kinetics koff (Table 1, 25° C., HBS-EP pH 7.4) did it give?
Its Kinetics koff is 0.0034 s⁻¹.

What about the Kinetics kon (Table 1, 25° C., HBS-EP pH 7.4) of the same molecule?
The Kinetics kon was 1.18e+06 M⁻¹ s⁻¹.

And the Kd (pH 7.4)?
The Kd was 3.23 nM.

B2: AB5 Q1569R P1597H S1602H: domain 11 AB5 + Q1569R, P1597H, S1602H (AB5-RHH) (protein)
chain: MKSNEHDDCQVTNPSTGHLFDLSSLSGRAGFTAAYAKGWGVYMSICGENENCPPGVGACFGRTRISVGKANKRLRYVDQVLQLVYKDGSHCPSKHGLSYKSVISFVCRPEAGPTNRPMLISLDKQTCTLFFSWHTPLACEQATECSV
Which results are given for B2?
off rate / koff (figure legend): 0.0038 s⁻¹; on rate / kon (figure legend): 5.9e+06 M⁻¹ s⁻¹; Kinetics koff (Table 3, 25° C., HBS-EP pH 7.4): 0.0038 s⁻¹; Kinetics kon (Table 3, 25° C., HBS-EP pH 7.4): 5.9e+06 M⁻¹ s⁻¹; Kinetics koff (Table 4, MES-EP pH 6.5): 0.0030 s⁻¹; Kinetics kon (Table 4, MES-EP pH 6.5): 4.41e+06 M⁻¹ s⁻¹

B3: AB3 Q1569R P1597H S1602H G1603K: domain 11 AB3 + Q1569R, P1597H, S1602H, G1603K (protein)
chain: MKSNEHDDCQVTNPSTGHLFDLSSLSGRAGFTAAYSKSGVVYMSICGENENCPPGVGACFGRTRISVGKANKRLRYVDQVLQLVYKDGSHCPSKHKLSYKSVISFVCRPEAGPTNRPMLISLDKQTCTLFFSWHTPLACEQATECSV
Which results are given for B3?
off rate / koff (figure legend): 0.0108 s⁻¹; on rate / kon (figure legend): 1.75e+07 M⁻¹ s⁻¹; Kinetics koff (Table 3, 25° C., HBS-EP pH 7.4): 0.0108 s⁻¹; Kinetics kon (Table 3, 25° C., HBS-EP pH 7.4): 1.75e+07 M⁻¹ s⁻¹; Kinetics koff (Table 4, MES-EP pH 6.5): 0.0087 s⁻¹; Kinetics kon (Table 4, MES-EP pH 6.5): 2.43e+07 M⁻¹ s⁻¹

B4: P1599A: domain 11 FG loop mutant P1599A, AB5 background unless otherwise stated (protein)
chain: MKSNEHDDCQVTNPSTGHLFDLSSLSGRAGFTAAYAKGWGVYMSICGENENCPPGVGACFGQTRISVGKANKRLRYVDQVLQLVYKDGSPCASKSGLSYKSVISFVCRPEAGPTNRPMLISLDKQTCTLFFSWHTPLACEQATECSV
For B4, which Kinetics koff (Table 1, 25° C., HBS-EP pH 7.4) is on record?
The Kinetics koff was over 0.1 s⁻¹.

B5: P1599V: domain 11 FG loop mutant P1599V, AB5 background unless otherwise stated (protein)
chain: MKSNEHDDCQVTNPSTGHLFDLSSLSGRAGFTAAYAKGWGVYMSICGENENCPPGVGACFGQTRISVGKANKRLRYVDQVLQLVYKDGSPCVSKSGLSYKSVISFVCRPEAGPTNRPMLISLDKQTCTLFFSWHTPLACEQATECSV
B5 was tested. Which Kinetics koff (Table 1, 25° C., HBS-EP pH 7.4) did it give?
Its Kinetics koff is over 0.1 s⁻¹.

B6: P1599G: domain 11 FG loop mutant P1599G, AB5 background unless otherwise stated (protein)
chain: MKSNEHDDCQVTNPSTGHLFDLSSLSGRAGFTAAYAKGWGVYMSICGENENCPPGVGACFGQTRISVGKANKRLRYVDQVLQLVYKDGSPCGSKSGLSYKSVISFVCRPEAGPTNRPMLISLDKQTCTLFFSWHTPLACEQATECSV
B6 was tested. Which Kinetics koff (Table 1, 25° C., HBS-EP pH 7.4) did it give?
Its Kinetics koff is over 0.2 s⁻¹.

B7: S1600A: domain 11 AB5 background + FG loop S1600A (protein)
chain: MKSNEHDDCQVTNPSTGHLFDLSSLSGRAGFTAAYAKGWGVYMSICGENENCPPGVGACFGQTRISVGKANKRLRYVDQVLQLVYKDGSPCPAKSGLSYKSVISFVCRPEAGPTNRPMLISLDKQTCTLFFSWHTPLACEQATECSV
How did the Kinetics koff (Table 1, 25° C., HBS-EP pH 7.4) turn out when B7 was run?
Its Kinetics koff is 0.2126 s⁻¹.

What about the Kinetics kon (Table 1, 25° C., HBS-EP pH 7.4) of the same molecule?
The Kinetics kon was 2.39e+06 M⁻¹ s⁻¹.

B8: S1600V: domain 11 AB5 background + FG loop S1600V (protein)
chain: MKSNEHDDCQVTNPSTGHLFDLSSLSGRAGFTAAYAKGWGVYMSICGENENCPPGVGACFGQTRISVGKANKRLRYVDQVLQLVYKDGSPCPVKSGLSYKSVISFVCRPEAGPTNRPMLISLDKQTCTLFFSWHTPLACEQATECSV
How did the Kinetics koff (Table 1, 25° C., HBS-EP pH 7.4) turn out when B8 was run?
Its Kinetics koff is over 0.2 s⁻¹.

B9: S1600L: domain 11 AB5 background + FG loop S1600L (protein)
chain: MKSNEHDDCQVTNPSTGHLFDLSSLSGRAGFTAAYAKGWGVYMSICGENENCPPGVGACFGQTRISVGKANKRLRYVDQVLQLVYKDGSPCPLKSGLSYKSVISFVCRPEAGPTNRPMLISLDKQTCTLFFSWHTPLACEQATECSV
How did the Kinetics koff (Table 1, 25° C., HBS-EP pH 7.4) turn out when B9 was run?
The Kinetics koff was over 0.2 s⁻¹.

B10: S1600Y: domain 11 AB5 background + FG loop S1600Y (protein)
chain: MKSNEHDDCQVTNPSTGHLFDLSSLSGRAGFTAAYAKGWGVYMSICGENENCPPGVGACFGQTRISVGKANKRLRYVDQVLQLVYKDGSPCPYKSGLSYKSVISFVCRPEAGPTNRPMLISLDKQTCTLFFSWHTPLACEQATECSV
How did the Kinetics koff (Table 1, 25° C., HBS-EP pH 7.4) turn out when B10 was run?
Its Kinetics koff is over 0.2 s⁻¹.

B11: S1600N: domain 11 AB5 background + FG loop S1600N (protein)
chain: MKSNEHDDCQVTNPSTGHLFDLSSLSGRAGFTAAYAKGWGVYMSICGENENCPPGVGACFGQTRISVGKANKRLRYVDQVLQLVYKDGSPCPNKSGLSYKSVISFVCRPEAGPTNRPMLISLDKQTCTLFFSWHTPLACEQATECSV
Which results are given for B11?
Kinetics koff (Table 1, 25° C., HBS-EP pH 7.4): 0.0910 s⁻¹; Kinetics kon (Table 1, 25° C., HBS-EP pH 7.4): 3.95e+06 M⁻¹ s⁻¹

B12: K1601A: domain 11 AB5 background + FG loop K1601A (protein)
chain: MKSNEHDDCQVTNPSTGHLFDLSSLSGRAGFTAAYAKGWGVYMSICGENENCPPGVGACFGQTRISVGKANKRLRYVDQVLQLVYKDGSPCPSASGLSYKSVISFVCRPEAGPTNRPMLISLDKQTCTLFFSWHTPLACEQATECSV
How did the Kinetics koff (Table 1, 25° C., HBS-EP pH 7.4) turn out when B12 was run?
Its Kinetics koff is 0.0220 s⁻¹.

What about the Kinetics kon (Table 1, 25° C., HBS-EP pH 7.4) of the same molecule?
The Kinetics kon was 3.26e+06 M⁻¹ s⁻¹.

B13: K1601R: domain 11 AB5 background + FG loop K1601R (protein)
chain: MKSNEHDDCQVTNPSTGHLFDLSSLSGRAGFTAAYAKGWGVYMSICGENENCPPGVGACFGQTRISVGKANKRLRYVDQVLQLVYKDGSPCPSRSGLSYKSVISFVCRPEAGPTNRPMLISLDKQTCTLFFSWHTPLACEQATECSV
For B13, which Kinetics koff (Table 1, 25° C., HBS-EP pH 7.4) is on record?
The Kinetics koff was 0.0251 s⁻¹.

And the Kinetics kon (Table 1, 25° C., HBS-EP pH 7.4)?
Its Kinetics kon is 5.28e+06 M⁻¹ s⁻¹.

B14: S1602A: domain 11 AB5 background + FG loop S1602A (protein)
chain: MKSNEHDDCQVTNPSTGHLFDLSSLSGRAGFTAAYAKGWGVYMSICGENENCPPGVGACFGQTRISVGKANKRLRYVDQVLQLVYKDGSPCPSKAGLSYKSVISFVCRPEAGPTNRPMLISLDKQTCTLFFSWHTPLACEQATECSV
How did the Kinetics koff (Table 1, 25° C., HBS-EP pH 7.4) turn out when B14 was run?
The Kinetics koff was 0.0250 s⁻¹.

What about the Kinetics kon (Table 1, 25° C., HBS-EP pH 7.4) of the same molecule?
Its Kinetics kon is 1.57e+06 M⁻¹ s⁻¹.

B15: S1602H: domain 11 AB5 background + FG loop S1602H (protein)
chain: MKSNEHDDCQVTNPSTGHLFDLSSLSGRAGFTAAYAKGWGVYMSICGENENCPPGVGACFGQTRISVGKANKRLRYVDQVLQLVYKDGSPCPSKHGLSYKSVISFVCRPEAGPTNRPMLISLDKQTCTLFFSWHTPLACEQATECSV
B15 was tested. Which Kinetics koff (Table 1, 25° C., HBS-EP pH 7.4) did it give?
The Kinetics koff was 0.0112 s⁻¹.

What about the Kinetics kon (Table 1, 25° C., HBS-EP pH 7.4) of the same molecule?
Its Kinetics kon is 3.61e+06 M⁻¹ s⁻¹.
